Assays:
[1] = target: T1, PF14_0533 D1 (PF3D7_1456000, AP2 domain transcription factor, putative) (Plasmodium falciparum) (UniProt Q8IKR9); settings: PBM; highest protein concentration obtained; buffer not given; scale: PBM E-score of the seed 8-mer
T1 sequence: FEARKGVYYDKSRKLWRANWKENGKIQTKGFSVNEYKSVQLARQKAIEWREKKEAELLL

[2] = target: T2, PF10_0075 D1ext (PF3D7_1007700, AP2 domain transcription factor AP2-I) (Plasmodium falciparum) (UniProt Q8IJW6); settings: PBM; highest protein concentration obtained; buffer not given; scale: PBM E-score of the seed 8-mer
T2 sequence: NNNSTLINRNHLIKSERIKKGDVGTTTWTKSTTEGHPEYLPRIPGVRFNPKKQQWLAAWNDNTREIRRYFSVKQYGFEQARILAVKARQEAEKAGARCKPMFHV

[3] = target: T3, PF11_0404 D1 (PF3D7_1139300, AP2 domain transcription factor, putative) (Plasmodium falciparum) (UniProt Q8IHX2); settings: PBM; highest protein concentration obtained; buffer not given; scale: PBM E-score of the seed 8-mer
T3 sequence: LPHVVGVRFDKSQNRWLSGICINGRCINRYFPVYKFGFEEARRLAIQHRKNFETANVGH

[4] = target: T4, PFD0985w D2ext (ApiAP2) (Plasmodium falciparum) (UniProt Q8I1N6); settings: PBM; highest protein concentration obtained; buffer not given; scale: PBM E-score of the seed 8-mer
T4 sequence: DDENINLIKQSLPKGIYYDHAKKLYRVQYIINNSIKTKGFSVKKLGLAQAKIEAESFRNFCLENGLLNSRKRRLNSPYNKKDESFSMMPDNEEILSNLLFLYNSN

[5] = target: T5, PF10_0075 D3ext (PF3D7_1007700, AP2 domain transcription factor AP2-I) (Plasmodium falciparum) (UniProt Q8IJW6); settings: PBM; highest protein concentration obtained; buffer not given; scale: PBM E-score of the seed 8-mer
T5 sequence: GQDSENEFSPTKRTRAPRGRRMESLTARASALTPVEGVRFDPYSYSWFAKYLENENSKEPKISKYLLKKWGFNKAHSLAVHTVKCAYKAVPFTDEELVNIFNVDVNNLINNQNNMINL

[6] = target: T6, PFL1075w D1 (PF3D7_1222400, AP2 domain transcription factor) (Plasmodium falciparum) (UniProt Q8I5J1); settings: PBM; highest protein concentration obtained; buffer not given; scale: PBM E-score of the seed 8-mer
T6 sequence: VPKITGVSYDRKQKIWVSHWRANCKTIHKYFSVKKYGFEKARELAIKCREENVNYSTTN

[7] = target: T7, PFL1085w D1ext (PF3D7_1222600, AP2 domain transcription factor AP2-G) (Plasmodium falciparum) (UniProt Q8I5I9); settings: PBM; highest protein concentration obtained; buffer not given; scale: PBM E-score of the seed 8-mer
T7 sequence: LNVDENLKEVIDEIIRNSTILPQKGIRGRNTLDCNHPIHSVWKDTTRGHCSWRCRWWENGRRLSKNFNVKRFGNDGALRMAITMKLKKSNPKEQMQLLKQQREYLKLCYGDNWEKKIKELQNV

[8] = target: T8, PF14_0633 D1 (PF3D7_1466400, AP2 domain transcription factor AP2-EXP) (Plasmodium falciparum) (UniProt Q8IKH2); settings: PBM; highest protein concentration obtained; buffer not given; scale: PBM E-score of the seed 8-mer
T8 sequence: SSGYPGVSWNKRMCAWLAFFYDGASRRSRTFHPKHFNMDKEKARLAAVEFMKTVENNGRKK

[9] = target: T9, PFF0670w D2ext (PF3D7_0613800, AP2 domain transcription factor, putative) (Plasmodium falciparum) (UniProt C6KSY0); settings: PBM; highest protein concentration obtained; buffer not given; scale: PBM E-score of the seed 8-mer
T9 sequence: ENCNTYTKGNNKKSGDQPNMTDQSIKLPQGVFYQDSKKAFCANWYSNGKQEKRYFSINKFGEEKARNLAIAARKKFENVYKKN

[10] = target: T10, PFF0200c D1 (PF3D7_0604100, AP2 domain transcription factor) (Plasmodium falciparum) (UniProt C6KSN9); settings: PBM; highest protein concentration obtained; buffer not given; scale: PBM E-score of the seed 8-mer
T10 sequence: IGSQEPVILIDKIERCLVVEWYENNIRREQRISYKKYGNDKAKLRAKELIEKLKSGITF

[11] = target: T11, PF13_0097 D1 (PF3D7_1317200, AP2 domain transcription factor AP2-FG, putative) (Plasmodium falciparum) (UniProt Q8IEE4); settings: PBM; highest protein concentration obtained; buffer not given; scale: PBM E-score of the seed 8-mer
T11 sequence: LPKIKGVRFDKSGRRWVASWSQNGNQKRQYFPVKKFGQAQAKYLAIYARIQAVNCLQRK

[12] = target: T12, PFL1900w DLD (PF3D7_1239200, AP2 domain transcription factor, putative) (Plasmodium falciparum) (UniProt Q8I531); settings: PBM; highest protein concentration obtained; buffer not given; scale: PBM E-score of the seed 8-mer
T12 sequence: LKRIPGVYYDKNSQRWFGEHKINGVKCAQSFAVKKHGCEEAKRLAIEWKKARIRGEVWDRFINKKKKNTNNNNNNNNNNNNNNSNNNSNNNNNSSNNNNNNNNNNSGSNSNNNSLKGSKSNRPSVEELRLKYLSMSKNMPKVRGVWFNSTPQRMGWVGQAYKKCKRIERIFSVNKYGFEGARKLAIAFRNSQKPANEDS

[13] = target: T13, PF13_0267 D1 (PF3D7_1350900, AP2 domain transcription factor AP2-O4, putative) (Plasmodium falciparum) (UniProt A0A5K1K8Z4); settings: PBM; highest protein concentration obtained; buffer not given; scale: PBM E-score of the seed 8-mer
T13 sequence: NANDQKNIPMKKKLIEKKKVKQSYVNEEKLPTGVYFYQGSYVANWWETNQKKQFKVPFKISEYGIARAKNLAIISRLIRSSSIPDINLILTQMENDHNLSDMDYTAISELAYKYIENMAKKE

[14] = target: PF10_0075 D3ext (PF3D7_1007700, AP2 domain transcription factor AP2-I) (Plasmodium falciparum, UniProt Q8IJW6 910-1027); assay: EMSA; 5 mM MgCl2 with 10 mM EDTA; LightShift buffer, 2.5% glycerol, 50 mM KCl, 0.05% NP-40, 50 ng/uL poly(dI-dC); room temperature, 20 min; settings: tags: N-terminal GST (pGEX-4T1), kept; label: 5' biotin
PFD0985w D2ext (ApiAP2) = target: T14, PFD0985w D2ext (ApiAP2) (Plasmodium falciparum, UniProt Q8I1N6 3258-3362); assay: as above; settings: tags: N-terminal GST (pGEX-4T1), kept; label: 5' biotin
T14 sequence: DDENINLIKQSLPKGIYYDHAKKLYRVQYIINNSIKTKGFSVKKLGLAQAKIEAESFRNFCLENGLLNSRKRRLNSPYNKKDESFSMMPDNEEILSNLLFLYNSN

Molecule: CACACACAC (double strand) [PF14_0533 primary motif]
- binding signal [1]: 0.5

Molecule: RGGTCGTTA / TAACGACCY [PF10_0075_D1 Secondary motif 2]
- binding signal [2]: > 0.45

Molecule: TAGATCGA (double strand) [PF11_0404_D1 Secondary motif 1]
- binding signal [3]: > 0.45

Molecule: WATTWCAC (double strand) [PFD0985w_D2 Secondary motif 1]
- binding signal [4]: > 0.45

Molecule: GTCGCGAC (double strand) [PF10_0075_D1 Secondary motif 3]
- binding signal [2]: > 0.45

Molecule: GTGCGCAC (double strand) [PF10_0075_D3 Secondary motif 1]
- binding signal [5]: > 0.45

Molecule: TATATATA (double strand) [PFL1075w primary motif]
- binding signal [6]: 0.499

Molecule: GTGTAC (double strand) [PFL1085w primary motif]
- binding signal [7]: 0.49

Molecule: GCATGC (double strand) [PF14_0633 primary motif]
- binding signal [8]: 0.5

Molecule: GTGYNYACAC / GTGTRNRCAC [PFD0985w_D2 Secondary motif 2]
- binding signal [4]: > 0.45

Molecule: AAGATCTT (double strand) [PFF0670w_D2 Secondary motif 2]
- binding signal [9]: > 0.45

Molecule: GTGTTACAC (double strand) [PFD0985w_D2 primary motif]
- binding signal [4]: 0.496

Molecule: TAGAACAA (double strand) [PF11_0404_D1 primary motif]
- binding signal [3]: 0.485

Molecule: CTGTATAA (double strand) [PFL1075w Secondary motif 2]
- binding signal [6]: > 0.45

Molecule: GTACTACT (double strand) [PFL1085w Secondary motif 1]
- binding signal [7]: > 0.45

Molecule: MCGCACCC / GGGTGCGK [PFF0200c_D1 Secondary motif 2]
- binding signal [10]: > 0.45

Molecule: TATATAGC (double strand) [PFL1075w Secondary motif 1]
- binding signal [6]: > 0.45

Molecule: GTGCAA (double strand) [PF10_0075_D3 Secondary motif 4]
- binding signal [5]: > 0.45

Molecule: TGATCM / KGATCA [PF13_0097 Secondary motif 2]
- binding signal [11]: > 0.45

Molecule: ACCGCGGT (double strand) [PFL1900w_DLD Secondary motif 2]
- binding signal [12]: > 0.45

Molecule: CTCTAGAG (double strand) [PFF0670w_D2 primary motif]
- binding signal [9]: 0.495

Molecule: GGGTCGACCC (double strand) [PF10_0075_D1 primary motif]
- binding signal [2]: 0.495

Molecule: GGTTCCGA (double strand) [PF10_0075_D1 Secondary motif 5]
- binding signal [2]: > 0.45

Molecule: GTGGTC (double strand) [PFL1085w Secondary motif 2]
- binding signal [7]: > 0.45

Molecule: CTANTAG (double strand) [PF13_0267 Secondary motif 1]
- binding signal [13]: > 0.45

Molecule: AGCTCAGA (double strand) [PF13_0097 primary motif]
- binding signal [11]: 0.489

Molecule: GTGCGKTA / TAMCGCAC [PF10_0075_D3 Secondary motif 2]
- binding signal [5]: > 0.45

Molecule: ACCTAGGT (double strand) [PFF0670w_D2 Secondary motif 1]
- binding signal [9]: > 0.45

Molecule: TCACYCAR / YTGRGTGA [PF13_0097 Secondary motif 3]
- binding signal [11]: > 0.45

Molecule: TCGGKGCA / TGCMCCGA [PF10_0075_D1 Secondary motif 1]
- binding signal [2]: > 0.45

Molecule: TGCTCAA (double strand) [PF13_0097 Secondary motif 1]
- binding signal [11]: > 0.45

Molecule: ACRACATC / GATGTYGT [PFL1900w_DLD Secondary motif 1]
- binding signal [12]: > 0.45

Molecule: TCTACAA (double strand) [PFL1900w_DLD primary motif]
- binding signal [12]: 0.468

Molecule: ATATGCAC (double strand) [PF10_0075_D3 Secondary motif 3]
- binding signal [5]: > 0.45

Molecule: ATTCTAGAA (double strand) [PF13_0267 primary motif]
- binding signal [13]: 0.479

Molecule: GTGCACTA (double strand) [PF10_0075_D3 primary motif]
- binding signal [5]: 0.496

Molecule: CMTGCACCMC / GKGGTGCAKG [PFF0200c_D1 Secondary motif 1]
- binding signal [10]: > 0.45

Molecule: CCACACAC (double strand) [PFD0985w_D2 Secondary motif 3]
- binding signal [4]: > 0.45

Molecule: WGTGCACTRNA / TNYAGTGCACW [PFF0200c_D1 Secondary motif 3]
- binding signal [10]: > 0.45

Molecule: ACCTAA (double strand) [PF13_0267 Secondary motif 2]
- binding signal [13]: > 0.45

Molecule: ARCATGCA / TGCATGYT [PF14_0633 Secondary motif 1]
- binding signal [8]: > 0.45

Molecule: GTGTGCA (double strand) [PF14_0533 Secondary motif 1]
- binding signal [1]: > 0.45

B1: msp1 (dsDNA)
DNA 1: AAATTGTGTAAATTCATATTCGATAAAGTGCATTAATTTTATTTATCAATTGTAAACATA
DNA 2: TATGTTTACAATTGATAAATAAAATTAATGCACTTTATCGAATATGAATTTACACAATTT
- binding result [14]: binds

B2: msp10 (dsDNA)
DNA 1: TCAACAATTATTATATAATTAATTAGAAGTGCATTAGGTAACAACTGTCGAATAAATATAT
DNA 2: ATATATTTATTCGACAGTTGTTACCTAATGCACTTCTAATTAATTATATAATAATTGTTGA
- binding result [14]: binds

B3: rhopH3 (dsDNA)
DNA 1: ATTAATTTAATATGTACGCAAGGTGCACACTGGTGCATTAAAAAAAAAATATATATTAAT
DNA 2: ATTAATATATATTTTTTTTTTAATGCACCAGTGTGCACCTTGCGTACATATTAAATTAAT
- binding result [14]: binds

B4: No motif (dsDNA)
DNA 1: AATATTATAATAGTCGTAGCCATCAATAAAAAAAAATGGTAATATAGATTTTCGTTTATATT
DNA 2: AATATAAACGAAAATCTATATTACCATTTTTTTTTATTGATGGCTACGACTATTATAATATT
- binding result (PFD0985w D2ext (ApiAP2)): no binding

B5: PFD0985w_D2-1 (motif rank) (dsDNA)
DNA 1: AATATTATAATAGTCGTAGCCATCAATGTGTAACACATGGTAATATAGATTTTCGTTTATATT
DNA 2: AATATAAACGAAAATCTATATTACCATGTGTTACACATTGATGGCTACGACTATTATAATATT
- binding result (PFD0985w D2ext (ApiAP2)): binds

B6: PFD0985w_D2-2 (motif rank) (dsDNA)
DNA 1: AATATTATAATAGTCGTAGCCATCAATCCACACACCATGGTAATATAGATTTTCGTTTATATT
DNA 2: AATATAAACGAAAATCTATATTACCATGGTGTGTGGATTGATGGCTACGACTATTATAATATT
- binding result (PFD0985w D2ext (ApiAP2)): binds

From article PMC2965767, “Identification and Genome-Wide Prediction of DNA Binding Specificities for the ApiAP2 Family of Regulators from the Malaria Parasite”
